Results: patent US20080267949A1, “Peptides capable of binding to serum proteins” (Ablynx N.V., priority 2006, published 2008)
Ends that are not written are not given here. c2 linker = not defined here

Key:
[1] = biological target: T1, human serum albumin (HSA) (Homo sapiens, UniProt P02768); assay: Phage binding assay: peptide expressed on pIII of M13 phage, on coated HSA (anti-M13 detection, Odyssey read-out)
T1 construct: purchased Sigma A5763
Description: (§1) After two selection rounds, monoclonal phage were screened for binding on HSA versus negative control antigen, ovalbumin (A5378, Sigma). Wells of a Maxisorp microtiter plate (Nunc) were coated using 10 μg/mL HSA or ovalbumin and blocked with SuperBlock T20 PBS Blocking Buffer (Pierce) to prevent non-specific binding. Phages, produced in 96-well plate, were diluted 1/10 in 1:1 (v:v) Superblock T20 PBS Blocking Buffer:PBS+0.05% Tween-20 and incubated on both HSA and ovalbumin. Bound phages were detected using anti-M13 (GE Healthcare) and goat anti-mouse IRDye700 (Rockland) and signals were read-out on Odyssey (LI-COR Biosciences). […] Both ‘hits’ were selected from the same library, i.e. originating from llama 117 in the non-constrained format. […] This peptide is referred to as 17D12. Its full amino acid sequence is given in SEQ ID NO: 1, and its encoding nucleotide sequence is given in SEQ ID NO:2. The amino acid sequence of the CDR3 loop is given in SEQ ID NO:3.
(§2) The phage binding assay was performed essentially as described in example 3. Phages, produced in 10 mL culture volume, were incubated on both HSA and ovalbumin in a ½ dilution series, starting with 7.5×10^11 phages/mL. […] Non-specific binding to ovalbumin is slightly higher for the constrained truncated peptide.
(§3) Binding of 17D12, as selected from primary screening after 2 selection rounds on HSA, to serum albumin of different species [mouse serum albumin (MSA, A3559, Sigma), cynomolgus serum albumin (CSA, in-house production), bovine serum albumin (BSA, A6003, Sigma) and HSA] and to negative control antigens [ovalbumin, human tumor necrosis factor α (TNF, in-house production)] was assessed using different phage concentrations. Additionally, similar binding studies were performed with two truncated variants of 17D12. Both peptides, i.e. 17D12-CDR3-NC (SEQ ID NO: 26) and 17D12-CDR3-C (SEQ ID NO;27), lack the flanking FR residues of 17D12 and the former is a non-constrained loop, whereas the latter is constrained (FIG. 4).
(§4) The phage binding assay was performed essentially as described in example 4.
(§5) The phage binding assay to HSA and ovalbumin was performed essentially as described in example 4. Phages, produced in 10 mL culture volume, were incubated on both HSA and ovalbumin in a ½ dilution series, starting with 10^12 phages/mL.

[2] = biological target: T2, mouse serum albumin (MSA) (Mus musculus, UniProt P07724); assay: Phage binding assay, cross-reactivity to mouse serum albumin; conditions: different phage concentrations
T2 construct: purchased Sigma A3559
Description: as §1, §3, §4

[3] = biological target: T3, bovine serum albumin (BSA) (Bos taurus, UniProt P02769); assay: Phage binding assay, cross-reactivity to bovine serum albumin; conditions: different phage concentrations
T3 construct: purchased Sigma A6003
Description: as §1, §3, §4

[4] = biological target: T4, human tumor necrosis factor α (TNF) (Homo sapiens, UniProt P01375); assay: Phage binding assay, specificity against negative control antigen TNF; conditions: different phage concentrations
T4 construct: made in house
Description: as §1, §3, §4

[5] = biological target: T5, cynomolgus serum albumin (CSA) (Macaca fascicularis, UniProt A2V9Z4); assay: Phage binding assay, cross-reactivity to cynomolgus serum albumin; conditions: different phage concentrations
T5 construct: made in house
Description: as §1, §3, §4

[6] = biological target: T6, ovalbumin (Gallus gallus, UniProt P01012); assay: Phage binding assay on coated negative control antigen ovalbumin
T6 construct: purchased Sigma A5378
T6 sequence (P01012 1-386): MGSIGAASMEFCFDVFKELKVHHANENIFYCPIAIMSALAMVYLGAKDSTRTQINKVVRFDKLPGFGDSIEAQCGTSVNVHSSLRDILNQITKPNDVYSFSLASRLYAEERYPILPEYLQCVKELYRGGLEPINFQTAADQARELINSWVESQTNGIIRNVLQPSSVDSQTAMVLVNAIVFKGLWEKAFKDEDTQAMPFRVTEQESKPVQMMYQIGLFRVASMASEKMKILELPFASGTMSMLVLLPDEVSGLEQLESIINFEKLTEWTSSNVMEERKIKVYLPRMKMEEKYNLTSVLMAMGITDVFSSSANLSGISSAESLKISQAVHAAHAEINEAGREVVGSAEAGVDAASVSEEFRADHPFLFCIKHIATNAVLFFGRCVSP
Description: as §1, §2, §3, §4, §5

[7] = biological target: T7, mouse serum albumin (mouse, UniProt P07724 25-608); assay: phage binding assay on coated Maxisorp wells, 5 phage dilutions per peptide, Odyssey image
T7 construct: also called MSA
Description: as §3
(§6) The phage binding assay was performed essentially as described in example 4. Full length 17D12 peptide as well as truncated peptides, 17D12-CDR3-NC and 17D12-CDR3-C, bind dose-dependently to HSA and CSA, whereas reactivity to MSA and BSA was not apparent in the assay performed (FIG. 6). There is no significant non-specific binding of 17D12 and 17D12-CDR3-NC to irrelevant proteins tested (ovalbumin and TNF). In contrast, there is a subtle degree of non-specific binding with the constrained truncated peptide.

[8] = biological target: T8, bovine serum albumin (bovine, UniProt P02769 25-607); assay: as above
T8 construct: also called BSA
Description: as §3, §6

[9] = biological target: T9, human tumor necrosis factor α (human, UniProt P01375 77-233); assay: as above
T9 construct: Negative control antigen; also called TNF
Description: as §3, §6

[10] = biological target: T10, ovalbumin (negative control antigen) (UniProt P01012 2-386); assay: phage binding assay: ovalbumin coated on Maxisorp, M13 phage in 1/2 dilution series from 10^12 phages/mL, Odyssey intensity
T10 construct: Bought protein
T10 sequence (looked up): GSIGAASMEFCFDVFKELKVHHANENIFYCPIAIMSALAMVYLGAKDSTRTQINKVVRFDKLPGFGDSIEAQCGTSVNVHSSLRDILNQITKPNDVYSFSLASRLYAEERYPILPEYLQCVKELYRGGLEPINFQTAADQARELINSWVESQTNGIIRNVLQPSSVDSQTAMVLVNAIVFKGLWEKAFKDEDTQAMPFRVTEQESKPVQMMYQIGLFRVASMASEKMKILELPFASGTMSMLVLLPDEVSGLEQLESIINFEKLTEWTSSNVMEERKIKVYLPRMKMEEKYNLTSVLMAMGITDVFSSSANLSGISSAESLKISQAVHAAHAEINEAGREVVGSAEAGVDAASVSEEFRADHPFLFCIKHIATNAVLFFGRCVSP
Description: The phage binding assay to HSA and ovalbumin was performed essentially as described in example 4. Phages, produced in 10 mL culture volume, were incubated on both HSA and ovalbumin in a ½ dilution series, starting with 10¹² phages/mL. Dose-dependent binding to HSA was retained upon fusion of the peptide 17D12 at the C-terminus of a non-albumin binding intact VHH in the presence or absence of a GlySer linker (FIG. 9).

[11] = biological target: T11, human serum albumin (human, UniProt P02768 25-609); assay: phage binding assay: 10 µg/mL HSA coated on Maxisorp, M13 phage displaying the peptide on pIII in 1/2 dilution series, anti-M13 + goat anti-mouse IRDye700, Odyssey intensity
T11 construct: Bought protein; also called HSA
Description: After two selection rounds, monoclonal phage were screened for binding on HSA versus negative control antigen, ovalbumin (A5378, Sigma). Wells of a Maxisorp microtiter plate (Nunc) were coated using 10 μg/mL HSA or ovalbumin and blocked with SuperBlock T20 PBS Blocking Buffer (Pierce) to prevent non-specific binding. Phages, produced in 96-well plate, were diluted 1/10 in 1:1 (v:v) Superblock T20 PBS Blocking Buffer:PBS+0.05% Tween-20 and incubated on both HSA and ovalbumin. Bound phages were detected using anti-M13 (GE Healthcare) and goat anti-mouse IRDye700 (Rockland) and signals were read-out on Odyssey (LI-COR Biosciences). […] This peptide is referred to as 17D12. Its full amino acid sequence is given in SEQ ID NO: 1, and its encoding nucleotide sequence is given in SEQ ID NO:2. The amino acid sequence of the CDR3 loop is given in SEQ ID NO:3.
The phage binding assay was performed essentially as described in example 3. Phages, produced in 10 mL culture volume, were incubated on both HSA and ovalbumin in a ½ dilution series, starting with 7.5×10¹¹ phages/mL. […] Non-specific binding to ovalbumin is slightly higher for the constrained truncated peptide.

[12] = biological target: T12, cynomolgus serum albumin (cynomolgus, UniProt A2V9Z4 25-608); assay: phage binding assay on coated Maxisorp wells, 5 phage dilutions per peptide (concentrations not given), Odyssey image
T12 construct: also called CSA; cynoSA
Description: as §3, §6

[13] = biological target: T13, rhErbB2-Fc antigen (R&D Systems) (human, UniProt P04626 23-652); assay: SPR: rhErbB2-Fc on a CM5 chip (~3000 RU), 2D3 injected in the presence of 25 µM HSA (concentration of 2D3 not given)
T13 construct: Bought; also called HER2 antigen; Her-2 antigen; not shown: Fc part of the bought fusion; not described
Description: (§7) FIG. 11: Surface plasmon resonance analysis of simultaneous binding of 2D3-17D12 fusion protein to HER2 antigen and human serum albumin (HSA). 2D3-17D12 fusion protein was pre-incubated or not with 1 and 5 μM HSA, followed by flow over immobilized 2D3 target antigen, rhErbB2-Fc. The dotted line represents the binding characteristics of 2D3 in presence of 25 μM HSA.

[14] = biological target: T11, human serum albumin; assay: SPR: biotinylated peptide captured on a streptavidin sensorchip, HSA injected for 4 min at 10 µl/min, reference-subtracted
Description: Binding of the 2 synthetic peptides Ala-17D12-CDR3 and Cys-Ala-17D12-CDR3 to HSA was assessed by surface plasmon resonance. The biotinylated peptides are each captured on streptavidin-coated sensorchip SA T071122. HSA binding is assessed at various concentrations. The samples were injected for 4 min at a flow rate of 10 ul/min over the activated and reference surfaces to allow for binding to chip-bound antigen. Next, binding buffer without HSA is sent over the chip at the same flow rate to allow for dissociation of bound HSA. After 10 min, remaining bound analyte is removed by injecting regeneration solution (50 mM NaOH).

[15] = biological target: T13, rhErbB2-Fc antigen (R&D Systems); assay: SPR: rhErbB2-Fc on a CM5 chip (~3000 RU), 2D3-17D12 injected alone or pre-incubated with 1 or 5 µM HSA (concentration of 2D3-17D12 not given)
Description: as §7

[16] = 1/2 dilution series starting with 7.5×10^11 phages/mL
[17] = 1/2 dilution series starting with 10^12 phages/mL

T12 sequence (A2V9Z4 25-608 limits assumed): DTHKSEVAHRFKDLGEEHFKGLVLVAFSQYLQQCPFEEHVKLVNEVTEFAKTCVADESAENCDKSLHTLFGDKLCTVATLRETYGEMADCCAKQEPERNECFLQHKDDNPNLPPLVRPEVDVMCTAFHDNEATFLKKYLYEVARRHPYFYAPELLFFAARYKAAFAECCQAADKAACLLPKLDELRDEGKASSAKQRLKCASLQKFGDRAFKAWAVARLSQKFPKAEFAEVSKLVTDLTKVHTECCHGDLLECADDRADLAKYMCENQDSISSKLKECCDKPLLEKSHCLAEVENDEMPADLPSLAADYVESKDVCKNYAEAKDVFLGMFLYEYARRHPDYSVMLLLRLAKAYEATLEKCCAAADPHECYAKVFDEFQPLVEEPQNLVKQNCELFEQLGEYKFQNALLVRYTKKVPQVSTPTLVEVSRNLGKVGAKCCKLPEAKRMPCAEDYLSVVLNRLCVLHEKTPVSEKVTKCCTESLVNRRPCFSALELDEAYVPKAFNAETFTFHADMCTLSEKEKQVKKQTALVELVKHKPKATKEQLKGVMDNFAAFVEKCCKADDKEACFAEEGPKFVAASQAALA
T5 sequence (A2V9Z4 25-608): as the sequence (A2V9Z4 25-608 limits assumed) above
T7 sequence (P07724 25-608 limits assumed): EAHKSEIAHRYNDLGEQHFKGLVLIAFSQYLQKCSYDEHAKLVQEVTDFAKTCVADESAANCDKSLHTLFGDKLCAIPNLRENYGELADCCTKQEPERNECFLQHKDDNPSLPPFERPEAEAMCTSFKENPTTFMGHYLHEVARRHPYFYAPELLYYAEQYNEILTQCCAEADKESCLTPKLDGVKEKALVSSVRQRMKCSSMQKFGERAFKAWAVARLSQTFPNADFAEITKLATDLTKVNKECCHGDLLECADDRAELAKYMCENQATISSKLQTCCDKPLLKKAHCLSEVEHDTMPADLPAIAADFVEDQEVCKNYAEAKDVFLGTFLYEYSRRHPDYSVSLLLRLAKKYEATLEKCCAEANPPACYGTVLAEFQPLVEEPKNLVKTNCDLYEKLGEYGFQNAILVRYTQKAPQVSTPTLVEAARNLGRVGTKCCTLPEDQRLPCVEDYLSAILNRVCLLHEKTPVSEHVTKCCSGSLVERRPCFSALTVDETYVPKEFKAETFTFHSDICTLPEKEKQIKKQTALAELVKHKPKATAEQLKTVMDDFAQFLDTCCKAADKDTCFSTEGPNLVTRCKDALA
T2 sequence (P07724 25-608): as the sequence (P07724 25-608 limits assumed) above
T3 sequence (P02769 25-607): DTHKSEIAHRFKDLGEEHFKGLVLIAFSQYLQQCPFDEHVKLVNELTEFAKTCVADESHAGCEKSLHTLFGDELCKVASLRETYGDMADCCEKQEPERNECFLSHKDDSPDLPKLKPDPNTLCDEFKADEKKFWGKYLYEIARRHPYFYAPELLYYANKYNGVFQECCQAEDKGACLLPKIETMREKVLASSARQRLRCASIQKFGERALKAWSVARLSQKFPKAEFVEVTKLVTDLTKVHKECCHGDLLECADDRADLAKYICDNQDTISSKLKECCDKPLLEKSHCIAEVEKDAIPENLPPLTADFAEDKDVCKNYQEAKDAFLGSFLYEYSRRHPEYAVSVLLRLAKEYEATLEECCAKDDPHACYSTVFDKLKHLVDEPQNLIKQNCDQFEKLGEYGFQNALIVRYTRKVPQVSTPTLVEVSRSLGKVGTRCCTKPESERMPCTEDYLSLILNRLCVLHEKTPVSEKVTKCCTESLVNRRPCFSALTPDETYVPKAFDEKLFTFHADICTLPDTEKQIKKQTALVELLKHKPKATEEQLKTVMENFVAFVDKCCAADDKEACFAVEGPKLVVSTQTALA
T8 sequence (P02769 25-607 limits assumed): as the sequence (P02769 25-607) above
T4 sequence (P01375 77-233 limits assumed): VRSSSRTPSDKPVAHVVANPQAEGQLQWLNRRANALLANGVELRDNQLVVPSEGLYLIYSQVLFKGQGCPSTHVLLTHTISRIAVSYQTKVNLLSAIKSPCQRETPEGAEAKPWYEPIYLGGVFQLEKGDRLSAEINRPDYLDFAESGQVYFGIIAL
T9 sequence (P01375 77-233 limits assumed): as above

dtavyycnaaasysdydvfgggtdfgpwgqgtqv (DTAVYYCNAAASYSDYDVFGGGTDFGPWGQGTQV; also: displayed on M13 pIII; listed as Lama glama) [17D12]
Binding to HSA (Example 4) [1, 16]: bind dose-dependently to HSA
Binding to HSA (Example 7, VHH fusions on phage) [1, 17]: bind dose-dependently to HSA
Binding to HSA (Example 5, cross-reactivity) ([1]; different phage concentrations): bind dose-dependently
Binding of monoclonal phage to HSA (screening) ([1]; screening after two selection rounds on HSA, phages diluted 1/10, signal/background ratio very low): bind to HSA
Reactivity to MSA [2]: not apparent
Reactivity to BSA [3]: not apparent
Non-specific binding to irrelevant protein TNF [4]: no significant non-specific binding
Binding to CSA [5]: bind dose-dependently
Binding to negative control ovalbumin (Example 4) [6, 16]: not to negative control peptide, ovalbumin
Binding to negative control ovalbumin (Example 7) [6, 17]: not to negative control peptide, ovalbumin
Non-specific binding to irrelevant protein ovalbumin (Example 5) ([6]; different phage concentrations): no significant non-specific binding
Binding of monoclonal phage to ovalbumin (screening) ([6]; screening after two selection rounds on HSA, phages diluted 1/10): not to ovalbumin

B1: 17D12 peptide (CDR3 loop with flanking FR3 and FR4 residues), expressed on pIII of M13 phage (peptide)
peptide: DTAVYYCNAAASYSDYDVFGGGTDFGPWGQGTQV
modifications: not fully specified (C-terminus)
notes: also called full length 17D12; not shown: library construct: followed by His6 and c-myc tags, a short Gly-Ala-Ala linker and M13 pIII
binding result [7]: no binding
binding result [8]: no binding
binding result [9]: no binding
binding result [10]: no binding (tested: 100 x10^10 phage/mL)
EC50 (read off the curve) [11]: ~5e+10 phage/mL
binding result [12]: binds

B2: 2D3 Nanobody (VHH that specifically binds to HER2) (VHH)
VHH: EVQLVESGGSLVQPGGSLRLSCAASGFTFDDYAMSWVRQVPGKGLEWVSSINWSGTHTDYADSVKGRFTISRNNANNTLYLQMNSLKSEDTAVYYCAKNWRDAGTTWFEKSGSAGQGTQVTVSS
notes: also called VHH 2D3
binding result [13]: binds

B3: Ala-17D12-CDR3 synthetic biotinylated peptide (acetyl-AAASYSDYDVFGGGTDFGP-c2 linker-biotin) (peptide)
peptide: Ac-AAASYSDYDVFGGGTDFGP-{c2 linker-biotin}
modifications: reading uncertain
notes: Captured on a streptavidin-coated sensor chip; HSA injected as analyte; also called PEO-100
binding result [14]: binds

B4: 2D3-17D12 fusion protein (other)
chain: EVQLVESGGSLVQPGGSLRLSCAASGFTFDDYAMSWVRQVPGKGLEWVSSINWSGTHTDYADSVKGRFTISRNNANNTLYLQMNSLKSEDTAVYYCAKNWRDAGTTWFEKSGSAGQGTQVTVSSDTAVYYCNAAASYSDYDVFGGGTDFGPWGQGTQVGGGS
notes: Soluble VHH-peptide fusion expressed in E. coli TG1 and purified by IMAC/SEC; also called Nanobody fusion peptide (2D3-17D12)
binding result [15]: binds

B5: Cys-Ala-17D12-CDR3 synthetic biotinylated peptide (acetyl-CAAASYSDYDVFGGGTDFGP-c2 linker-biotin) (peptide)
peptide: Ac-CAAASYSDYDVFGGGTDFGP-{c2 linker-biotin}
modifications: reading uncertain
notes: Captured on a streptavidin-coated sensor chip; HSA injected as analyte; also called PEO-101.5
binding result [14]: binds
